# Results published in IntAct's records for PubMed 18354482.
# B1: RE1-silencing transcription factor (Homo sapiens), Q13127 (parent)
# chain: MATQVMGQSSGGGGLFTSSGNIGMALPNDMYDLHDLSKAELAAPQLIMLANVALTGEVNGSCCDYLVGEERQMAELMPVGDNNFSDSEEGEGLEESADIKGEPHGLENMELRSLELSVVEPQPVFEASGAPDIYSSNKDLPPETPGAEDKGKSSKTKPFRCKPCQYEAESEEQFVHHIRVHSAKKFFVEESAEKQAKARESGSSTAEEGDFSKGPIRCDRCGYNTNRYDHYTAHLKHHTRAGDNERVYKCIICTYTTVSEYHWRKHLRNHFPRKVYTCGKCNYFSDRKNNYVQHVRTHTGERPYKCELCPYSSSQKTHLTRHMRTHSGEKPFKCDQCSYVASNQHEVTRHARQVHNGPKPLNCPHCDYKTADRSNFKKHVELHVNPRQFNCPVCDYAASKKCNLQYHFKSKHPTCPNKTMDVSKVKLKKTKKREADLPDNITNEKTEIEQTKIKGDVAGKKNEKSVKAEKRDVSKEKKPSNNVSVIQVTTRTRKSVTEVKEMDVHTGSNSEKFSKTKKSKRKLEVDSHSLHGPVNDEESSTKKKKKVESKSKNNSQEVPKGDSKVEENKKQNTCMKKSTKKKTLKNKSSKKSSKPPQKEPVEKGSAQMDPPQMGPAPTEAVQKGPVQVEPPPPMEHAQMEGAQIRPAPDEPVQMEVVQEGPAQKELLPPVEPAQMVGAQIVLAHMELPPPMETAQTEVAQMGPAPMEPAQMEVAQVESAPMQVVQKEPVQMELSPPMEVVQKEPVQIELSPPMEVVQKEPVKIELSPPIEVVQKEPVQMELSPPMGVVQKEPAQREPPPPREPPLHMEPISKKPPLRKDKKEKSNMQSERARKEQVLIEVGLVPVKDSWLLKESVSTEDLSPPSPPLPKENLREEASGDQKLLNTGEGNKEAPLQKVGAEEADESLPGLAANINESTHISSSGQNLNTPEGETLNGKHQTDSIVCEMKMDTDQNTRENLTGINSTVEEPVSPMLPPSAVEEREAVSKTALASPPATMAANESQEIDEDEGIHSHEGSDLSDNMSEGSDDSGLHGARPVPQESSRKNAKEALAVKAAKGDFVCIFCDRSFRKGKDYSKHLNRHLVNVYYLEEAAQGQE
# Variants of: B1
# Conditions: with fbw1a_human BTRC
row,effect of a mutation on the interaction,Variant
1,disrupting interaction strength,S1013A
2,disrupting interaction strength,E1009A;S1013A
3,disrupting interaction strength,E1009A
